{
  "source": "patent US20220380457A1",
  "molecular_target": "FcγRIIIA (CD16α) on human NK cells in whole blood (human) (UniProt P08637)",
  "sequence (P08637 17-254)": "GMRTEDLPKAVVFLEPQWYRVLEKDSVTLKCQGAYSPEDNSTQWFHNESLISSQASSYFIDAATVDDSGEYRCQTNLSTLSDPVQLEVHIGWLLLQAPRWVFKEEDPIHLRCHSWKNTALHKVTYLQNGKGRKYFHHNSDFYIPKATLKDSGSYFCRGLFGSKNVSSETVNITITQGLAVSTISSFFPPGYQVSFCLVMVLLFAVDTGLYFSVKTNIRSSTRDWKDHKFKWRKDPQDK",
  "test": "cell-based or functional assay",
  "data": [
    {"substance": "WT rituximab (soluble antibody, wild type hinge)", "values": [
      {"measurement": "NK cell activation in whole human blood, CD16/CD62L staining, FIG. 11A control row, left lower quadrant (downregulation of CD16α)", "value": 45.2},
      {"measurement": "NK cell activation in whole human blood, CD107α/CD69 staining, FIG. 11B control row, right upper quadrant (upregulation of CD107α)", "value": 35.3},
      {"measurement": "NK cell activation with IdeZ, FIG. 11A IdeZ row, left lower quadrant", "value": 8.8},
      {"measurement": "NK cell activation with IdeZ, FIG. 11B IdeZ row, right upper quadrant", "value": 1.9},
      {"measurement": "depletion of CD19(+) B cells with IdeZ against WT rituximab in control blood", "value": 63, "unit": "%"},
      {"measurement": "residual CD19(+) B cells in blood with IdeZ, FIG. 11C IdeZ row, right lower quadrant", "value": 9.8}
    ]}
  ]
}
